Reference: PMC6607443, “Systematic identification of recognition motifs for the hub protein LC8” (Life Science Alliance, 2019)

B1: CCL2 peptide (peptide)
peptide: YDSMDHLDKQTQTPKT
B2: MUC3A peptide (peptide)
peptide: PVLTSATGTQTSPA
B3: MAST1 peptide (peptide)
peptide: YGCTRHQSVQTEDG
B4: ZFPM1 peptide (peptide)
peptide: PAPPSYSDKGVQTPSK
B5: SON peptide (peptide)
peptide: YSRKSRCVSVQTDPT
B6: SLC9A2 peptide (peptide)
peptide: DDHSREKGTQTSGD
B7: ROR1 peptide (peptide)
peptide: DDSGGNATTQTTSD
B8: TOGARAM1 peptide (peptide)
peptide: SKTQQTFGSQTECT
B9: MUC4 peptide with N-terminal aspartates (DDNHWTRSTQTTRE) (peptide)
peptide: DDNHWTRSTQTTRE
B10: CIZ1 peptide (peptide)
peptide: ARAGRSVSTQTGSM
B11: CAPRIN2 peptide (peptide)
peptide: NQSFTTASTQTPPQ
B12: GP1BA peptide (peptide)
peptide: GQGAALTTATQTTHLE
B13: ARAP3 peptide (peptide)
peptide: SPSPTGLPTQTPGF
B14: ICE1 peptide (peptide)
peptide: EKELRHIGTQISSD
B15: CCL7 peptide (peptide)
peptide: QDFMKHLDKKTQTPKL
B16: BCL2L11 peptide (peptide)
peptide: APMSCDKSTQTPSP
B17: SPAG5 peptide (peptide)
peptide: HPETQDSSTQTDTS
B18: MUC4 peptide (SQNHWTRSTQTTRE) (peptide)
peptide: SQNHWTRSTQTTRE
B19: OFD1 peptide (peptide)
peptide: AKESCNMETQTSST
B20: GLCCI1 peptide (peptide)
peptide: SSSTRSIDTQTPSV
B21: bassoon (BSN) peptide, modified version with the TQT motif near the C-terminus (peptide)
peptide: PRATAEFSTQTPSP
notes: also called BSN^II; modified BSN peptide

Target: dynein light chain LC8 (UniProt P63167 1-89)
Sequence (P63167 whole entry): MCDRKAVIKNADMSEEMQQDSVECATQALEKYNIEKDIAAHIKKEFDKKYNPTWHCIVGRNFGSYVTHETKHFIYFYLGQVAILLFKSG
Assay: ITC; peptide (500 μM) injected into 25 μM LC8 in the cell; 25°C; 50 mM sodium phosphate, 50 mM NaCl, 1 mM sodium azide, 5 mM β-mercaptoethanol, pH 7.5; single-site model; averages of two to three experiments
Conditions: both partners purified

Q: Which “stoichiometry N” value does the source give for B1 here?
A: 1 peptide per LC8 chain

Q: With B2 as the binder, how does the “stoichiometry N” value read?
A: 1 peptide per LC8 chain

Q: B3 was tested. Which “stoichiometry N” value did it give?
A: 1 peptide per LC8 chain

Q: Which “stoichiometry N” value does the source give for B4 here?
A: 1 peptide per LC8 chain

Q: For B5, which “stoichiometry N” value is on record?
A: 1 peptide per LC8 chain

Q: How did the “stoichiometry N” value turn out when B6 was run?
A: 1 peptide per LC8 chain

Q: B7 was tested. Which Kd did it give?
A: > 25 µM

Q: With B8 as the binder, how does the Kd read?
A: > 25 µM

Q: For B9, which “stoichiometry N” value is on record?
A: 1 peptide per LC8 chain

Q: B10 was tested. Which “stoichiometry N” value did it give?
A: 1 peptide per LC8 chain

Q: With B11 as the binder, how does the “stoichiometry N” value read?
A: 1 peptide per LC8 chain

Q: How did the Kd turn out when B12 was run?
A: > 25 µM

Q: How did the Kd turn out when B13 was run?
A: > 25 µM

Q: For B14, which “stoichiometry N” value is on record?
A: 1 peptide per LC8 chain

Q: How did the “stoichiometry N” value turn out when B15 was run?
A: 1 peptide per LC8 chain

Q: How did the Kd turn out when B16 was run?
A: 0.16 µM

Q: What about the “stoichiometry N” value of the same binder?
A: 1 peptide per LC8 chain

Q: B17 was tested. Which “stoichiometry N” value did it give?
A: 1 peptide per LC8 chain

Q: For B18, which “stoichiometry N” value is on record?
A: 1 peptide per LC8 chain

Q: B19 was tested. Which “stoichiometry N” value did it give?
A: 1 peptide per LC8 chain

Q: B20 was tested. Which “stoichiometry N” value did it give?
A: 1 peptide per LC8 chain

Q: For B21, which “stoichiometry N” value is on record?
A: 1 peptide per LC8 chain
